Measured values reported in the supplement of paper PMC10126150.
± gives the standard deviation of the averaged measurements.

Test system: ATP
Experiment: switch fluorescence ratio, 500 uM ATP over buffer (Cy3 cluster intensity, sum of 5 cycles each) (fold (ratio)); higher = stronger signal-on switching upon ATP binding; sequences stand for … in TCGTCGGCAGCGTCAGATGTGTATAAGAGACAGTTTTTTTTTTTTTTTTTTTTTTTTT…TC
Conditions: aptamer strand: ATP DNA aptamer (quencher-CACCTGGGGGAGTATTGCGGAGGAAGG + anchor), 100 nM annealed; ATP concentration: 500 uM
Outline: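 Switching-strand clusters labelled with Cy3 on a modified Illumina MiSeq flow-cell were annealed to 100 nM quencher-labelled ATP aptamer, imaged in selection buffer, and re-imaged after 15 min with 500 uM ATP at 22 °C. This was done over five cycles with NaOH stripping and re-annealing in between. The fluorescence ratio is summed target-cycle over summed buffer-cycle Cy3 intensity per cluster, averaged per switch-domain sequence, excluding clusters outside 100-1000 RFU.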
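Also: ATP exposure 15 min at 22 °C before imaging.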

Sequence	switch fluorescence ratio
AGAGTGGAGA	1.009 ± 0.0004
AGAGTGTAGG	1.08 ± 0.034
AGAGTGTGGC	1.07 ± 0.039
AGAGTTAAAG	0.9917 ± 0.0072
AGAGTTAAGT	0.989 ± 0.032
AGAGTTACCG	1.04 ± 0.017
AGAGTTGGGT	0.984 ± 0.02
AGAGTTTGT	0.987 ± 0.014
AGATAATTGG	1.007 ± 0.0061
AGATACTTTC	1.03 ± 0.024
AGATAGGCGT	0.9959 ± 0.0056
AGATAGGGCA	0.994 ± 0.032
AGATAGTTGT	1.01 ± 0.016
AGATATAACT	1.021 ± 0.0066
AGATATGAAC	1.04 ± 0.044
AGATATTTTG	0.988 ± 0.039
AGATCAAGAG	0.974 ± 0.04
AGATCAGTGC	0.997 ± 0.011
AGATCATGCG	1.02 ± 0.045
AGATCGAGTA	0.989 ± 0.033
AGATCGGTTT	1 ± 0.042
AGATCTAAGG	1 ± 0.019
AGATCTTGCG	0.979 ± 0.019
AGATGAATTC	0.982 ± 0.036
AGATGAGCCG	1.05 ± 0.11

Sequence	switch fluorescence ratio
AGATGATATA	0.999 ± 0.013
AGATGCCTTC	1.01 ± 0.029
AGATGCTTTA	0.9908 ± 0.0027
AGATGGAGCT	0.9875 ± 0.0055
AGATGGAGGA	0.99 ± 0.033
AGATGGGGAG	1.04 ± 0.064
AGATGGGGGA	0.983 ± 0.026
AGATGGTTGC	0.958 ± 0.021
AGATGTGACG	0.9686 ± 0.0087
AGATGTTTGG	0.956 ± 0.027
AGATTAAACA	1.02 ± 0.032
AGATTAGGGG	1.04 ± 0.041
AGATTAGTTC	1.002 ± 0.0056
AGATTAGTTG	1.016 ± 0.0039
AGATTATAGG	1.01 ± 0.018
AGATTCGTAC	1.02 ± 0.021
AGATTGCATA	0.994 ± 0.015
AGATTGGAAT	0.9968 ± 0.0058
AGATTGGTTA	0.992 ± 0.021
AGATTGTGCA	0.963 ± 0.011
AGATTGTTAG	1.015 ± 0.0027
AGATTTATCC	0.977 ± 0.065
AGATTTGGTT	1.01 ± 0.032
AGATTTGTGG	0.9917 ± 0.0033
AGATTTTCCG	1.01 ± 0.023
